Reference: PMC7367873, “Dissecting the sequence determinants for dephosphorylation by the catalytic subunits of phosphatases PP1 and PP2A” (Nature Communications, 2020)

Tests used:
GFP-14-3-3β = GFP-14-3-3β co-IP with LC-MS/MS, untreated GFP-14-3-3β versus GFP control (14-3-3 interactome); assay type: binding, human; conditions: pairwise comparison untreated vs GFP
[1] = test system: GFP-14-3-3β and its binding proteins; assay: GFP-14-3-3β co-IP with LC-MS/MS label-free quantification, untreated versus PP1c-treated; parameters: species or system human; conditions: pairwise comparison PP1 vs untreated
[2] = log2 difference, label-free quantification, 3 replicates each

Molecule | Difference (log2), untreated vs GFP (GFP-14-3-3β) [log2] | Difference (log2), PP1 vs untreated [1] [log2] | Difference (log2), untreated vs GFP (GFP-14-3-3β; [2]) | Difference (log2), PP1 vs untreated [1, 2]
TSR1 (protein, UniProt Q2NL82 1-804, looked up) Pre-rRNA-processing protein …: MAAHRPGPLKQQNKAHKGGRHRGRGSAQRDGKGRLALKTLSKKVRKELSRVDQRHRASQLRKQKKEAVLAEKRQLGGKDGPPHQVLVVPLHSRISLPEAMQLLQDRDTGTVHLNELGNTQNFMLLCPRLKHRWFFTSARPGDLHVVLDMAKVADTILFLLDPLEGWDSTGDYCLSCLFAQGLPTYTLAVQGISGLPLKKQIDTRKKLSKAVEKRFPHDKLLLLDTQQEAGMLLRQLANQKQQHLAFRDRRAYLFAHAVDFVPSEENNLVGTLKISGYVRGQTLNVNRLLHIVGYGDFQMKQIDAPGDPFPLNPRGIKPQKDPDMAMEICATDAVDDMEEGLKVLMKADPGRQESLQAEVIPDPMEGEQTWPTEEELSEAKDFLKESSKVVKKVPKGTSSYQAEWILDGGSQSGGEGDEYEYDDMEHEDFMEEESQDESSEEEEEYETMTIGESVHDDLYDKKVDEEAEAKMLEKYKQERLEEMFPDEVDTPRDVAARIRFQKYRGLKSFRTSPWDPKENLPQDYARIFQFQNFTNTRKSIFKEVEEKEVEGAEVGWYVTLHVSEVPVSVVECFRQGTPLIAFSLLPHEQKMSVLNMVVRRDPGNTEPVKAKEELIFHCGFRRFRASPLFSQHTAADKHKLQRFLTADMALVATVYAPITFPPASVLLFKQKSNGMHSLIATGHLMSVDPDRMVIKRVVLSGHPFKIFTKMAVVRYMFFNREDVLWFKPVELRTKWGRRGHIKEPLGTHGHMKCSFDGKLKSQDTVLMNLYKRVFPKWTYDPYVPEPVPWLKSEISSTVPQGGME | 1.267 | 0.01439 |  | 
NAP1L1 (protein, UniProt P55209 2-388, looked up) Nucleosome assembly protein …: ADIDNKEQSELDQDLDDVEEVEEEETGEETKLKARQLTVQMMQNPQILAALQERLDGLVETPTGYIESLPRVVKRRVNALKNLQVKCAQIEAKFYEEVHDLERKYAVLYQPLFDKRFEIINAIYEPTEEECEWKPDEEDEISEELKEKAKIEDEKKDEEKEDPKGIPEFWLTVFKNVDLLSDMVQEHDEPILKHLKDIKVKFSDAGQPMSFVLEFHFEPNEYFTNEVLTKTYRMRSEPDDSDPFSFDGPEIMGCTGCQIDWKKGKNVTLKTIKKKQKHKGRGTVRTVTKTVSNDSFFNFFAPPEVPESGDLDDDAEAILAADFEIGHFLRERIIPRSVLYFTGEAIEDDDDDYDEEGEEADEEGEEEGDEENDPDYDPKKDQNPAEC |  |  | -0.3295 | 1.883
PHF6 (protein, UniProt Q8IWS0 2-365, looked up) PHD finger protein 6: SSSVEQKKGPTRQRKCGFCKSNRDKECGQLLISENQKVAAHHKCMLFSSALVSSHSDNESLGGFSIEDVQKEIKRGTKLMCSLCHCPGATIGCDVKTCHRTYHYHCALHDKAQIREKPSQGIYMVYCRKHKKTAHNSEADLEESFNEHELEPSSPKSKKKSRKGRPRKTNFKGLSEDTRSTSSHGTDEMESSSYRDRSPHRSSPSDTRPKCGFCHVGEEENEARGKLHIFNAKKAAAHYKCMLFSSGTVQLTTTSRAEFGDFDIKTVLQEIKRGKRMKCTLCSQPGATIGCEIKACVKTYHYHCGVQDKAKYIENMSRGIYKLYCKNHSGNDERDEEDEERESKSRGKVEIDQQQLTQQQLNGN | 0.8956 | 0.0136 |  | 
SPECC1 (protein, UniProt Q5M775 1-1068, looked up) Cytospin-B: MRSAAKPWNPAIRAGGHGPDRVRPLPAASSGMKSSKSSTSLAFESRLSRLKRASSEDTLNKPGSTAASGVVRLKKTATAGAISELTESRLRSGTGAFTTTKRTGIPAPREFSVTVSRERSVPRGPSNPRKSVSSPTSSNTPTPTKHLRTPSTKPKQENEGGEKAALESQVRELLAEAKAKDSEINRLRSELKKYKEKRTLNAEGTDALGPNVDGTSVSPGDTEPMIRALEEKNKNFQKELSDLEEENRVLKEKLIYLEHSPNSEGAASHTGDSSCPTSITQESSFGSPTGNQMSSDIDEYKKNIHGNALRTSGSSSSDVTKASLSPDASDFEHITAETPSRPLSSTSNPFKSSKCSTAGSSPNSVSELSLASLTEKIQKMEENHHSTAEELQATLQELSDQQQMVQELTAENEKLVDEKTILETSFHQHRERAEQLSQENEKLMNLLQERVKNEEPTTQEGKIIELEQKCTGILEQGRFEREKLLNIQQQLTCSLRKVEEENQGALEMIKRLKEENEKLNEFLELERHNNNMMAKTLEECRVTLEGLKMENGSLKSHLQGEKQKATEASAVEQTAESCEVQEMLKVARAEKDLLELSCNELRQELLKANGEIKHVSSLLAKVEKDYSYLKEICDHQAEQLSRTSLKLQEKASESDAEIKDMKETIFELEDQVEQHRAVKLHNNQLISELESSVIKLEEQKSDLERQLKTLTKQMKEETEEWRRFQADLQTAVVVANDIKCEAQQELRTVKRKLLEEEEKNARLQKELGDVQGHGRVVTSRAAPPPVDEEPESSEVDAAGRWPGVCVSRTSPTPPESATTVKSLIKSFDLGRPGGAGQNISVHKTPRSPLSGIPVRTAPAAAVSPMQRHSTYSSVRPASRGVTQRLDLPDLPLSDILKGRTETLKPDPHLRKSPSLESLSRPPSLGFGDTRLLSASTRAWKPQSKLSVERKDPLAALAREYGGSKRNALLKWCQKKTQGYANIDITNFSSSWSDGLAFCALLHTYLPAHIPYQELNSQEKKRNLLLAFEAAESVGIKPSLELSEMLYTDRPDWQSVMQYVAQIYKYFET | 0.2064 | -0.005819 |  | 
HNRNPM (protein, UniProt P52272 2-730, looked up) Heterogeneous nuclear …: AAGVEAAAEVAATEIKMEEESGAPGVPSGNGAPGPKGEGERPAQNEKRKEKNIKRGGNRFEPYANPTKRYRAFITNIPFDVKWQSLKDLVKEKVGEVTYVELLMDAEGKSRGCAVVEFKMEESMKKAAEVLNKHSLSGRPLKVKEDPDGEHARRAMQKVMATTGGMGMGPGGPGMITIPPSILNNPNIPNEIIHALQAGRLGSTVFVANLDYKVGWKKLKEVFSMAGVVVRADILEDKDGKSRGIGTVTFEQSIEAVQAISMFNGQLLFDRPMHVKMDERALPKGDFFPPERPQQLPHGLGGIGMGLGPGGQPIDANHLNKGIGMGNIGPAGMGMEGIGFGINKMGGMEGPFGGGMENMGRFGSGMNMGRINEILSNALKRGEIIAKQGGGGGGGSVPGIERMGPGIDRLGGAGMERMGAGLGHGMDRVGSEIERMGLVMDRMGSVERMGSGIERMGPLGLDHMASSIERMGQTMERIGSGVERMGAGMGFGLERMAAPIDRVGQTIERMGSGVERMGPAIERMGLSMERMVPAGMGAGLERMGPVMDRMATGLERMGANNLERMGLERMGANSLERMGLERMGANSLERMGPAMGPALGAGIERMGLAMGGGGGASFDRAIEMERGNFGGSFAGSFGGAGGHAPGVARKACQIFVRNLPFDFTWKMLKDKFNECGHVLYADIKMENGKSKGCGVVKFESPEVAERACRMMNGMKLSGREIDVRIDRNA | 0.1311 | -0.01052 |  | 
DNAJC10 (protein, UniProt Q8IXB1 33-793, looked up) DnaJ homolog subfamily C …: DQDFYSLLGVSKTASSREIRQAFKKLALKLHPDKNPNNPNAHGDFLKINRAYEVLKDEDLRKKYDKYGEKGLEDNQGGQYESWNYYRYDFGIYDDDPEIITLERREFDAAVNSGELWFVNFYSPGCSHCHDLAPTWRDFAKEVDGLLRIGAVNCGDDRMLCRMKGVNSYPSLFIFRSGMAPVKYHGDRSKESLVSFAMQHVRSTVTELWTGNFVNSIQTAFAAGIGWLITFCSKGGDCLTSQTRLRLSGMLDGLVNVGWMDCATQDNLCKSLDITTSTTAYFPPGATLNNKEKNSILFLNSLDAKEIYLEVIHNLPDFELLSANTLEDRLAHHRWLLFFHFGKNENSNDPELKKLKTLLKNDHIQVGRFDCSSAPDICSNLYVFQPSLAVFKGQGTKEYEIHHGKKILYDILAFAKESVNSHVTTLGPQNFPANDKEPWLVDFFAPWCPPCRALLPELRRASNLLYGQLKFGTLDCTVHEGLCNMYNIQAYPTTVVFNQSNIHEYEGHHSAEQILEFIEDLMNPSVVSLTPTTFNELVTQRKHNEVWMVDFYSPWCHPCQVLMPEWKRMARTLTGLINVGSIDCQQYHSFCAQENVQRYPEIRFFPPKSNKAYHYHSYNGWNRDAYSLRIWGLGFLPQVSTDLTPQTFSEKVLQGKNHWVIDFYAPWCGPCQNFAPEFELLARMIKGKVKAGKVDCQAYAQTCQKAGIRAYPTVKFYFYERAKRNFQEEQINTRDAKAIAALISEKLETLRNQGKRNKDEL | 0.1892 | -0.01679 |  | 
SLC1A5 (protein, UniProt Q15758 1-541, looked up) Neutral amino acid …: MVADPPRDSKGLAAAEPTANGGLALASIEDQGAAAGGYCGSRDQVRRCLRANLLVLLTVVAVVAGVALGLGVSGAGGALALGPERLSAFVFPGELLLRLLRMIILPLVVCSLIGGAASLDPGALGRLGAWALLFFLVTTLLASALGVGLALALQPGAASAAINASVGAAGSAENAPSKEVLDSFLDLARNIFPSNLVSAAFRSYSTTYEERNITGTRVKVPVGQEVEGMNILGLVVFAIVFGVALRKLGPEGELLIRFFNSFNEATMVLVSWIMWYAPVGIMFLVAGKIVEMEDVGLLFARLGKYILCCLLGHAIHGLLVLPLIYFLFTRKNPYRFLWGIVTPLATAFGTSSSSATLPLMMKCVEENNGVAKHISRFILPIGATVNMDGAALFQCVAAVFIAQLSQQSLDFVKIITILVTATASSVGAAGIPAGGVLTLAIILEAVNLPVDHISLILAVDWLVDRSCTVLNVEGDALGAGLLQNYVDRTESRSTEPELIQVKSELPLDPLPVPTEEGNPLLKHYRGPAGDATVASEKESVM | 0.7589 | -0.02668 |  | 
TUBB6 (protein, UniProt Q9BUF5 1-446, looked up) Tubulin beta-6 chain: MREIVHIQAGQCGNQIGTKFWEVISDEHGIDPAGGYVGDSALQLERINVYYNESSSQKYVPRAALVDLEPGTMDSVRSGPFGQLFRPDNFIFGQTGAGNNWAKGHYTEGAELVDAVLDVVRKECEHCDCLQGFQLTHSLGGGTGSGMGTLLISKIREEFPDRIMNTFSVMPSPKVSDTVVEPYNATLSVHQLVENTDETYCIDNEALYDICFRTLKLTTPTYGDLNHLVSATMSGVTTSLRFPGQLNADLRKLAVNMVPFPRLHFFMPGFAPLTSRGSQQYRALTVPELTQQMFDARNMMAACDPRHGRYLTVATVFRGPMSMKEVDEQMLAIQSKNSSYFVEWIPNNVKVAVCDIPPRGLKMASTFIGNSTAIQELFKRISEQFSAMFRRKAFLHWFTGEGMDEMEFTEAESNMNDLVSEYQQYQDATANDGEEAFEDEEEEIDG | -0.8713 | -0.03516 |  | 
